Test results: US12618050B2, “Engineered polypeptides that exhibit increased catalytic efficiency for unnatural cofactors and uses thereof” (The Regents of the University of California, priority 2018, dated 2026)
Substitutions are numbered along the chain they refer to. Names and notes keep the numbering of the source. “Also recorded” adds a separate entry of the source.

Columns and labels:
[1] = GDH enzymatic assay with NADP^+ as cofactor; format: biochemical; conditions: for Kcat / Km: cofactor NADP^+
Protocol: (§1) GDH enzymatic assays. The GDH activity was measured as described in Hilt et al. (Biochimica et biophysica acta 1076(2):298-304 (1991)). The reactions were started by adding the purified protein to the assay mixture containing 35 mM Tris-HCl buffer (pH 8.0), 3 mM NAD^+, NADP^+ or NMN^+ and 140 mM glucose. The absorbance variation at 340 nm was detected by a spectrophotometer at 25° C.

[2] = XenA-GDH coupled cycling biotransformation of ketoisophorone to levodione; format: biochemical
Protocol: Coupled enzymatic biotransformation. All biotransformation reactions were performed in buffer A at 30° C. for 24 hours. Reaction buffer A, modified from that disclosed in Chaparro-Riggers et al., Advanced Synthesis & Catalysis 349(8-9):1521-1531 (2007)), contained 200 mM potassium phosphate buffer (pH 7.5), 1 M NaCl, 300 mM D-glucose, 6 mM NMN^+ (or NADP^+ as the positive control), and substrates. All assays were performed in triplicate, with no proteins or no cofactors added as negative controls. The protein loading for GDH variants was kept at 0.33 mg mL^−1 or 11.7 μM. The various enzymes for biotransformation reactions were added at the concentration of 0.75 mg mL^−1.
For XenA-GDH coupled cycling assays, the substrates ketoisophorone, citral, or trans-2-hexen-1-al were added at 33 mM, 10 mM, or 50 mM, respectively. For the OYE3-GDH coupled cycling assays, the substrate 4-phenyl-3-butyn-2-one was added at 5 mM. At various time points over 24 hours, 100 μL samples were taken and extracted with 100 μL ethyl acetate. Conversion was determined via GC-FID with octanol as an internal standard (see below). For NfsB-GDH coupled cycling assays, 2 mM nitrofurazone was used as the substrate. Nitrofurazone conversion was measured spectroscopically at 400 nm and quantification was performed using a standard curve. The initial levels of the above-mentioned substrates were mainly determined by their solubility in the assay buffer. For BM3-GDH coupled cycling assays, 50 μM cytochrome c (C2506 Sigma) was used as the substrate. The reduction of cytochrome c was measured spectroscopically at 550 nm. and the quantification was performed using extinction coefficient ε550 of 21.1 mM^−1 cm^−1.
Coupled cycling conditions: All biotransformation reactions were performed in buffer A at 30° C. for 24 hours. Reaction buffer A contained 200 mM potassium phosphate buffer (pH 7.5), 1 M NaCl, 300 mM D-glucose, 6 mM NMN^+. Substrate ketoisophorone was added at 5 g/L. At various time points over 24 hours, 100 μL samples were taken and extracted with 100 μL ethyl acetate. Conversion was determined via GC-FID with octanol as an internal standard (see below).

[3] = GDH enzymatic assay with NAD^+ as cofactor; format: biochemical; conditions: for Kcat / Km: cofactor NAD^+
Protocol: as §1

[4] = GDH enzymatic assay with NMN^+ as cofactor; format: biochemical; conditions: for Kcat / Km: cofactor NMN^+; for impact of mutation on activity towards NMN^+: without I195R
Protocol: as §1

[5] = Protein expression levels of GDH variants; set-up: species or system Escherichia coli; conditions: expressed in E. coli
Protocol: Proteins were purified as 6×His tag fusion at the N-terminus. E. coli BL21 (DE3) with plasmids were inoculated into LB medium with 200 mg L^−1 ampicillin. Cells were induced with 0.5 mM IPTG and expressed for 24 hours at 30° C. with shaking at 250 rpm. BM3 cytochrome P450 was extracted with the EMD Millipore™ BugBuste Plus Lysonase Kit and purified using the HisPur™ Ni-NTA Superflow Purification System according to the manufacturer's instructions. Other proteins were purified using His-Spin Protein Miniprep kit (Zymo Research Corporation, CA). The purified proteins were quantified by Bradford assay.

[6] = tested on: E. coli strain MX103; assay: E. coli growth with NMN^+-dependent glycolysis; format: cell-based, Escherichia coli
[7] = tested on: E. coli whole cells; assay: NMN^+-dependent whole-cell biotransformation of KIP; format: cell-based, Escherichia coli
Protocol: NMN^+-dependent whole-cell biotransformation. One biotransformation plasmid expressing XenA, LVR, or ADH with a GDH (selected from pLZ217-pLZ225) and pSM104 containing the glucose transport facilitator were transformed into strain MX102 by electroporation. 4 mL seed cultures of 2×YT media with appropriate antibiotics, 0.1 mM IPTG, and 0.2% (wt/v) glucose were cultured at 30° C. while shaking at 250 rpm for 16 hours. 0.5% (v/v) seed cultures were used to inoculate 150 mL of 2×YT media with appropriate antibiotics, A5 trace metals with cobalt, and 0.5 mM IPTG in a 250 mL baffled shake flask and cultured at 30° C. at 250 rpm. When an OD600˜0.4 was reached, protein expression was induced with 0.1% (w/v) arabinose and cultured for an additional 8 hours at 30° C. while shaking at 250 rpm. Cells were harvested by centrifugation for 15 minutes at 20° C. at 3750 rpm. The supernatant was discarded. Nutrients from the media were removed by washing the pelleted cells 3 times with 50 mL of 100 mM potassium phosphate at pH 7.5. Cells were resuspended to an OD600 of 100 in assay buffer consisting of 100 mM potassium phosphate buffer at pH 7.5, 200 mM D-glucose, 0.5% arabinose, and 0.5 mM IPTG. 1 mL of resuspended cells were added to 20 mL of identical assay buffer in a 250 mL unbaffled, screw-cap shake flask. KIP was spiked into the flask to 5 g/L to initiate the reaction. Flask caps were secured tightly to prevent evaporative loss of substrate or products. Flasks were incubated at 30° C. while shaking at 250 rpm for 48 hours. After 48 hours, 1 mL of culture was pelleted, and the supernatant was used for analysis. 200 μL of supernatant was extracted with an equal volume of ethyl acetate containing 200 mg/L octanol as an internal standard, and the samples were analyzed by gas chromatography. For samples expressing all three conversion enzymes (XenA, LVR, and ADH) on the same vector (pLZ226), the Bs GDH was expressed individually on a separate vector (pSM106, pSM107, or pSM108). The Zm glf gene was also expressed in the system (pSM110).

[8] = specific activity towards NMN^+

B1: I195R: Bs GDH, same sequence as SEQ ID NO:1 except I195R (SEQ ID NO:2) (protein)
chain: MYPDLKGKVVAITGAASGLGKAMAIRFGKEQAKVVINYYSNKQDPNEVKEEVIKAGGEAVVVQGDVTKEEDVKNIVQTAIKEFGTLDIMINNAGLENPVPSHEMPLKDWDKVIGTNLTGAFLGSREAIKYFVENDIKGNVINMSSVHEVIPWPLFVHYAASKGGIKLMTETLALEYAPKGIRVNNIGPGAINTPRNAEKFADPKQKADVESMIPMGYIGEPEEIAAVAAWLASKEASYVTGITLFADGGMTQYPSFQAGRG
modifications: I195R mutant GDH coding sequence
Kcat [1]: 2.5 ± 0.21 s⁻¹
Km [1]: 0.016 ± 0.0008 mM
initial productivity of levodione ([2]; NMN^+ as cycling cofactor, XenA in excess, GDH 11.7 μM): ~0.51 µM/s
improvement of NMN^+-dependent productivity ([2]; versus wild type Bs GDH): 10 fold
Kcat [3]: 7.3 ± 1.1 s⁻¹
Km [3]: 0.053 ± 0.0092 mM
Kcat [4]: 1.1 ± 0.27 s⁻¹
Km [4]: 8.9 ± 0.69 mM
improvement of specific activity towards NMN^+ ([4]; versus wild-type Bs GDH): 545 fold
Expression level [5]: 108.83 μg protein/ml culture

B2: M143G-L19G-I224R (protein)
chain: B1 chain with L19G, M143G, R195I, I224R
Expression level [5]: No expression (<1) μg protein/ml culture

B3: I195T (protein)
chain: B1 chain with R195T
Expression level [5]: 105.51 μg protein/ml culture

B4: Y39Q: Bs GDH with Y39Q substitution (SEQ ID NO:4) (protein)
chain: B1 chain with Y39Q, R195I
modifications: Y39Q mutant GDH coding sequence
impact of mutation on activity towards NMN^+ [4]: lack of impact on activity

B5: A93K-Y39Q: Bs GDH variant A93K-Y39Q (protein)
chain: B1 chain with Y39Q, A93K, R195I
impact of mutation on activity towards NMN^+ [4]: lack of impact on activity

B6: L19H-I191S (protein)
chain: B1 chain with L19H, I191S, R195I
Expression level [5]: No expression (<1) μg protein/ml culture

B7: I195R-A93K: Bs GDH variant I195R A93K (protein)
chain: B1 chain with A93K
lower activity than GDH Triple [4, 8]: 9 fold
Expression level [5]: 11.17 μg protein/ml culture

B8: S17Q-P194N (protein)
chain: B1 chain with S17Q, P194N, R195I
Expression level [5]: 117.63 μg protein/ml culture

B9: I195R-Y39Q: Bs GDH variant I195R Y39Q (protein)
chain: B1 chain with Y39Q
lower activity than GDH Triple [4, 8]: 14 fold
slower than I195R [4, 8]: 2.4 fold
Expression level [5]: 57.60 μg protein/ml culture

B10: G94S (protein)
chain: B1 chain with G94S, R195I
Expression level [5]: 117.50 μg protein/ml culture

B11: A93K: Bs GDH with A93K substitution (SEQ ID NO:3) (protein)
chain: B1 chain with A93K, R195I
modifications: A93K mutant GDH coding sequence
impact of mutation on activity towards NMN^+ [4]: lack of impact on activity

B12: M143T (protein)
chain: B1 chain with M143T, R195I
Expression level [5]: 94.55 μg protein/ml culture

B13: I195R-A93K-Y39Q-S17E: Bs GDH with I195R, A93K, Y39Q, S17E substitutions (SEQ ID NO:7) (protein)
chain: B1 chain with S17E, Y39Q, A93K
modifications: I195R A93K Y39Q S17E mutant GDH coding sequence
Kcat [1]: 0.022 ± 0.013 s⁻¹
Km [1]: 2 mM
drop of catalytic efficiency for NADP^+ upon introducing S17E ([1]; compared with GDH Triple): 890 fold
cell growth on glucose ([6]; minimal glucose medium, GDH without XenA): did not grow
cell growth on glucose ([6]; minimal medium, glucose sole carbon source, GDH with XenA, listed as GDH Ortho): able to grow; also recorded: supported E. coli growth on glucose
Kcat [3]: 0.025 ± 0.002 s⁻¹
Km [3]: 6.5 mM
drop of catalytic efficiency for NAD^+ upon introducing S17E ([3]; compared with GDH Triple): 220 fold
change of NMN^+-dependent catalytic efficiency compared with GDH Triple [4]: modest reduction
Kcat [4]: 1.21 ± 0.09 s⁻¹
Km [4]: 5.9 ± 1 mM
overall specificity switch towards NMN^+ from NADP^+ ([4]; compared to wild type): ~1×10^7 fold
overall specificity switch towards NMN^+ from NAD^+ ([4]; compared to wild type): ~2×10^7 fold
levodione fraction of total products by mass ([7]; XenA, LVR and ADH over-expressed simultaneously): ~92%
LVR- and ADH-catalyzed formation of phorenol or HIP ([7]; resting cells with LVR or ADH): minimal levels of phorenol or HIP
levodione produced ([7]; resting cells with XenA, 5 g/L KIP, glucose co-substrate): ~1 g/L

B14: M143S (protein)
chain: B1 chain with M143S, R195I
Expression level [5]: 40.60 μg protein/ml culture

B15: N92V (protein)
chain: B1 chain with N92V, R195I
Expression level [5]: 57.56 μg protein/ml culture

B16: N92A (protein)
chain: B1 chain with N92A, R195I
Expression level [5]: 81.16 μg protein/ml culture

B17: I195S (protein)
chain: B1 chain with R195S
Expression level [5]: 96.33 μg protein/ml culture
